The numbers were not newly measured in publication PMC2817915, which cites them from elsewhere.

Several values for one entry are separate records, joined by “and”; a condition that tells them apart may be missing. Equal values may be shown once.

Holding throughout (conditions): native HEWL; ligand state not stated
Data set [1] deals with Asp87 (UniProt position 105, ALLSSDITASV).
Data set [2] deals with His15 (UniProt position 33, AAMKRHGLDNY).
Data set [3] concerns the target Asp18 (UniProt position 36, KRHGLDNYRGY).
Data set [4] has as its target Glu35 (UniProt position 53, CAAKFESNFNT).
Data set [5] deals with Asp48 (UniProt position 66, TNRNTDGSTDY).
For data set [6], the target named is Glu7 (UniProt position 25, VFGRCELAAAM).
The target in data set [7] is Asp52 (UniProt position 70, TDGSTDYGILQ).
The target in data set [8] is Asp119 (UniProt position 137, RCKGTDVQAWI).
Data set [9] addresses Asp66 (UniProt position 84, RWWCNDGRTPG).
Data set [10] has as its target Asp101 (UniProt position 119, KKIVSDGNGMN).

Consider “Hen egg-white lysozyme (HEWL, lysozyme C) (Gallus gallus)”, for which the pKa (commonly the negative logarithm of the acid dissociation constant) in data set [1] is given as 2.07; in [2], 5.71; in [3] it was 2.66; in [4] it was 6.20; in data set [5], 2.50; in [6], 2.85. Besides, the pKa in [7] was 3.68 and 3.6−3.76; in [8], 3.20; in [9] it was 2.00; in [10], 4.09.
